The target in data set [1] is T1, NEco (EcoKMcrA N-terminal domain) (Escherichia coli K) (UniProt P24200).
T1 sequence: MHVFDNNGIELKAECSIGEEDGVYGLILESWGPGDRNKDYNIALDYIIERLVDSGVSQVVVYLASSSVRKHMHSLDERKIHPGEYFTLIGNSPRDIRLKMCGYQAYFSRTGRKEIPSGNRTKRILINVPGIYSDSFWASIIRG
The experiment in a line: competition. As to conditions: 5mC in CpG, both strands; EMSA: 10 nM 33P/32P 30 bp duplex, 5-2000 nM NEco; competition: 10 nM labeled C5mCGG, 10 nM NEco, 3-3000 nM unlabeled competitor; buffer, pH and temperature not …. For orientation: Mobility shift assays separate free from complexed probe on a gel.

Data set [2] addresses T2, NEco (EcoKMcrA N-terminal domain) (Escherichia coli K, UniProt P24200 1-143).
T2 sequence: T1 sequence
The experiment in a line: competition; EMSA: 10 nM 33P/32P 30 bp duplex, 5-2000 nM NEco; competition: 10 nM labeled C5mCGG, 10 nM NEco, 3-3000 nM unlabeled competitor; buffer, pH and temperature not. As to conditions: protein: recombinant.

The target of another data set is T3, NEco W31H (Escherichia coli K, UniProt P24200 1-143, W31H).
T3 sequence: T1 sequence with W31H
The description is as above. As to conditions: protein: recombinant.

For data set [3], the target named is T2, NEco (EcoKMcrA N-terminal domain). Described as above. As to conditions: protein: recombinant. This is another data set of the same source.
Data set [4] has as its target T4, NEco W31A (Escherichia coli K, UniProt P24200 1-143, W31A).
T4 sequence: T1 sequence with W31A
The experiment in a line: EMSA; discrete complexes, unlike wt; EMSA: 10 nM 33P/32P 30 bp duplex, 5-2000 nM NEco; competition: 10 nM labeled C5mCGG, 10 nM NEco, 3-3000 nM unlabeled competitor; buffer, pH and temperature not. As to conditions: protein: recombinant.

For the next data set, the target named is T5, NEco W31F (Escherichia coli K, UniProt P24200 1-143, W31F).
T5 sequence: T1 sequence with W31F
Nature of the data set: EMSA; EMSA: 10 nM 33P/32P 30 bp duplex, 5-2000 nM NEco; competition: 10 nM labeled C5mCGG, 10 nM NEco, 3-3000 nM unlabeled competitor; buffer, pH and temperature not. As to conditions: protein: recombinant.

The next data set deals with T6, NEco W31S (Escherichia coli K, UniProt P24200 1-143, W31S).
T6 sequence: T1 sequence with W31S
Described as above. As to conditions: protein: recombinant.

The target in a further data set is T7, NEco S30A (Escherichia coli K, UniProt P24200 1-143, S30A).
T7 sequence: T1 sequence with S30A
The description is as above. As to conditions: protein: recombinant.

The target of the next data set is T8, NEco W31Y (Escherichia coli K, UniProt P24200 1-143, W31Y).
T8 sequence: T1 sequence with W31Y
Described as above. As to conditions: protein: recombinant.

Data set [5] has as its target T4, NEco W31A. Described as above. As to conditions: protein: recombinant.
The target of a further data set is T9, NEco W31V (Escherichia coli K, UniProt P24200 1-143, W31V).
T9 sequence: T1 sequence with W31V
The description is as above. As to conditions: protein: recombinant.

The target of the next data set is T10, NEco S30V (Escherichia coli K, UniProt P24200 1-143, S30V).
T10 sequence: T1 sequence with S30V
The description is as above. As to conditions: protein: recombinant.

A further data set concerns the target T11, NEco W31I (Escherichia coli K, UniProt P24200 1-143, W31I).
T11 sequence: T1 sequence with W31I
Described as above. As to conditions: protein: recombinant.

Another data set addresses T12, NEco S30L (Escherichia coli K, UniProt P24200 1-143, S30L).
T12 sequence: T1 sequence with S30L
The description is as above. As to conditions: protein: recombinant.

Another data set concerns the target T13, NEco W31L (Escherichia coli K, UniProt P24200 1-143, W31L).
T13 sequence: T1 sequence with W31L
The description is as above. As to conditions: protein: recombinant.

The target in the next data set is T14, NEco N119A (Escherichia coli K, UniProt P24200 1-143, N119A).
T14 sequence: T1 sequence with N119A
Described as above. As to conditions: protein: recombinant.

Numbering of substitutions follows the chain as printed.

The molecule “AGACCCACGCTCAGCGCTTCCAGATTTATC (double strand) [30 bp G5mCGC]” yielded a binding signal (fold lower affinity than G5mCGG/C5mCGC) in [1] greater than 25.

In data set [1], “AGACCCACGCTCAGCGGTTCCAGATTTATC (double strand) [30 bp G5mCGG/C5mCGC]” came in with a binding signal (fold lower affinity than C5mCGG) of 100.

B1: 30 bp CTGG/C5mCAG (T:A pair) (dsDNA)
DNA 1: AGACCCACGCTCACTGGTTCCAGATTTATC
DNA 2: GATAAATCTGGAACCAGTGAGCGTGGGTCT
modifications: 5mC in one strand
In the case of B1, in data set [2], the binding signal is > 2000 fold lower affinity than C5mCGG.

B2: 30 bp CTGG/C5mCGG (T:G mismatch) (dsDNA)
DNA 1: B1 DNA 1
DNA 2: B1 DNA 2 with A16G
modifications: 5mC in one strand
On to B2, for which, in data set [2] (T:G mismatch), the binding signal is ~500 fold lower affinity than C5mCGG.

B3: 30 bp CCGG hemi-methylated (dsDNA)
DNA 1: B1 DNA 1 with T15C
DNA 2: B1 DNA 2 with A16G
modifications: 5mC at inner C of CCGG, one strand
On to B3, for which the binding signal with NEco W31H was ~35 fold lower affinity than fully methylated (same variant); in data set [3], ~230 fold lower affinity than fully methylated. Moreover, in the data set with NEco W31A [4], the binding result was “binds”.

B4: 30 bp C5mCGG fully methylated (dsDNA)
DNA 1: B1 DNA 1 with T15C
DNA 2: B1 DNA 2 with A16G
modifications: 5mC at inner C of CCGG, both strands
With B4, the binding result with NEco W31F, with NEco W31S, with NEco S30A, in the data set with NEco W31Y and with NEco W31A [5] was “binds” throughout. Moreover, the binding signal in the data set with NEco W31V was greater than 50 fold decreased vs wt NEco; in the data set with NEco S30V, greater than 50 fold decreased vs wt NEco; in the data set with NEco W31I it was greater than 50 fold decreased vs wt NEco; in the data set with NEco S30L, greater than 50 fold decreased vs wt NEco; with NEco W31L, greater than 50 fold decreased vs wt NEco; with NEco N119A it was roughly 40 fold impaired vs wt NEco.

B5: 30 bp C5hmCGG fully hydroxymethylated (dsDNA)
DNA 1: B1 DNA 1 with T15C
DNA 2: B1 DNA 2 with A16G
modifications: 5hmC at inner C of CCGG, both strands
For B5, the binding signal in [3] was ~40 fold lower affinity than fully methylated.

B6: 30 bp CCGG non-methylated (dsDNA)
DNA 1: B1 DNA 1 with T15C
DNA 2: B1 DNA 2 with A16G
In the case of B6, in data set [3], the binding signal is ~10 fold lower affinity than hemi-methylated.
